Data taken from patent US20260201005A1.

Key:
[1] = target: KLB (β-klotho) on KLB only expressing cells (UniProt Q86Z14); experiment: cell-based or functional assay
[2] = target: KLB/FGFR4 on KLB/FGFR4 expressing cells (UniProt Q86Z14); experiment: cell-based or functional assay
KLB/FGFR4 on KLB/FGFR4 expressing cells, sequence (Q86Z14 whole entry, chain 1 of 2): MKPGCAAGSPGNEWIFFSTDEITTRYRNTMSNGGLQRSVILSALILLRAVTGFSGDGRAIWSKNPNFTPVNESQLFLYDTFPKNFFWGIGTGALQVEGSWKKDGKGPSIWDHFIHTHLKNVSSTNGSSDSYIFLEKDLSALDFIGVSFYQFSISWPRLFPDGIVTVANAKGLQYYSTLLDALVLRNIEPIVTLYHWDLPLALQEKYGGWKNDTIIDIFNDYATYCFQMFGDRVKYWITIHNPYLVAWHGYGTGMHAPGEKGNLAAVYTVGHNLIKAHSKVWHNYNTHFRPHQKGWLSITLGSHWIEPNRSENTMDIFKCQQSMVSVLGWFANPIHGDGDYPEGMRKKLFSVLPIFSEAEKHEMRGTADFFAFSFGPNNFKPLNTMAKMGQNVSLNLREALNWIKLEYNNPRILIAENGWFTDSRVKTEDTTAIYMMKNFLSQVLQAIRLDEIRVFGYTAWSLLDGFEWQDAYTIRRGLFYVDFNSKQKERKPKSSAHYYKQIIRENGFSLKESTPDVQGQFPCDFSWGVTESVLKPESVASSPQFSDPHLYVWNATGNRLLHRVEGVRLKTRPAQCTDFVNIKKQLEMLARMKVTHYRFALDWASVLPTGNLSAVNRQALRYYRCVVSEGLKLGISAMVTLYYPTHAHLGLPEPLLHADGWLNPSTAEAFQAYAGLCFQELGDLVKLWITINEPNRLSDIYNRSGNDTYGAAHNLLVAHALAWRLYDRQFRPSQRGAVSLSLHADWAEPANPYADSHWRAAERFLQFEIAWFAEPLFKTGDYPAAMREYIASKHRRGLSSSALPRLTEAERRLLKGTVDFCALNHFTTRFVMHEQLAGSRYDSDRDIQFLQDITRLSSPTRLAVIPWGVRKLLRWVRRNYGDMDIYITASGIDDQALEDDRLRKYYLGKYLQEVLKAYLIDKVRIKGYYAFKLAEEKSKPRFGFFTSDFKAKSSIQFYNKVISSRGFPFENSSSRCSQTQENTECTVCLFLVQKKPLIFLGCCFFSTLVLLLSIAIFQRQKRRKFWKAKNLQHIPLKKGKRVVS
KLB/FGFR4 on KLB/FGFR4 expressing cells, sequence (P22455 22-802 limits assumed, chain 2 of 2, further chain): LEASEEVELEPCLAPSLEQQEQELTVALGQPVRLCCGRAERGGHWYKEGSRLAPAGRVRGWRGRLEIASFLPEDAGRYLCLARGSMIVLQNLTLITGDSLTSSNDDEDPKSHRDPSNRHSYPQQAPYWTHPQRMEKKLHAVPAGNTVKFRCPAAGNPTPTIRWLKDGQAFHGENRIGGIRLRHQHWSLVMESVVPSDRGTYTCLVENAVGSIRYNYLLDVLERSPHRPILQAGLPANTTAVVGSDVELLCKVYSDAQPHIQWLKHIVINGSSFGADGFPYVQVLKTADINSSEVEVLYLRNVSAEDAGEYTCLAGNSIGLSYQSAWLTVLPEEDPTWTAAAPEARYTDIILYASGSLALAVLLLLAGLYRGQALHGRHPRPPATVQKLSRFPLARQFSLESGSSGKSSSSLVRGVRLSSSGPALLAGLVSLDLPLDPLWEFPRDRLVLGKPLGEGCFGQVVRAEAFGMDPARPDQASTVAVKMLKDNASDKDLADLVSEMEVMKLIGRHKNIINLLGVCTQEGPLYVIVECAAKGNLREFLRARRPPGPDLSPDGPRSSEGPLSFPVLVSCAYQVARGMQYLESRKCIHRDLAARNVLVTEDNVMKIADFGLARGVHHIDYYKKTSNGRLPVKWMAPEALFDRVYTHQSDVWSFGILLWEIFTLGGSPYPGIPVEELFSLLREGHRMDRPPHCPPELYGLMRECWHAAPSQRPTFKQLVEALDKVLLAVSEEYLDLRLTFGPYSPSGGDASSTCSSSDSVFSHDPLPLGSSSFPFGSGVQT

KLB (β-klotho) on KLB only expressing cells, sequence (Q86Z14 whole entry): as the sequence (Q86Z14 whole entry, chain 1 of 2) above

Row | Substance | pERK functional assay, fold increase of pERK at 3000 nM [1] [fold] | pERK functional assay, fold increase in pERK at 3000 nM [2] [fold]
1 | FGF-19 (from UniProt O95750 25-216) (ligand) | 2 | 
2 | FGF-21 (native / wild type human Fibroblast Growth Factor-21) (from UniProt Q9NSA1 29-209) (ligand) | 2 | < 2
3 | Mutant FGF21-GalNAc-SA-PEG-20 kDa (BIO89-100) (from UniProt Q9NSA1 29-209) (ligand) |  | < 2
